Measured values reported in US20220411520A1 (GMAX BIOPHARM, published 2022).
Blank lines part the entries; values can stand above or below the binder they belong to.

What was measured:
[1] = target: T1, human gastric inhibitory polypeptide receptor (hGIPR) (human) (UniProt P48546); assay: cell-based or functional assay
T1 sequence: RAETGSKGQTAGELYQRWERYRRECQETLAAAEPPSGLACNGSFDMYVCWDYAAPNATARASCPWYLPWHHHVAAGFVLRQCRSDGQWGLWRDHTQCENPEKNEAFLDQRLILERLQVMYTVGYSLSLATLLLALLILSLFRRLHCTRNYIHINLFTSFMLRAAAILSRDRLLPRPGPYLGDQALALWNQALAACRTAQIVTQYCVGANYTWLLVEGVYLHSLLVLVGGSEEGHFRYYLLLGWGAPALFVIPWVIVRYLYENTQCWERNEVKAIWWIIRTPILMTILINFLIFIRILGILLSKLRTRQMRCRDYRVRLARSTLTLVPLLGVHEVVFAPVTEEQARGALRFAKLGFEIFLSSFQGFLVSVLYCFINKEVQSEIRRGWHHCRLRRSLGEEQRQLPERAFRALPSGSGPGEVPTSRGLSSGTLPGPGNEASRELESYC

[2] = target: human GLP-1 receptor (hGLP-1R) (human, UniProt P43220 24-463); assay: cell-based or functional assay
[3] = target: T2, human gastric inhibitory polypeptide receptor (hGIPR) (human, UniProt P48546 22-466); assay: cell-based or functional assay
T2 sequence: T1 sequence

[4] = target: T2, human gastric inhibitory polypeptide …; assay: FACS on CHO-DHFR-hGIPR cells
Protocol: PBS containing 10 mM EDTA was used to detach the CHO-DHFR-hGIPR cells and 10⁵ cells/tube was distributed into 1.5 mL EP tubes, and the supernatant was removed after centrifugation. The negative control sample was resuspended with a loading buffer (PBS, 2% FBS). For the positive control, 200 μL GIPR antibody solution of specific concentration was added to the cells and incubated at room temperature; after incubation, the cells were then centrifuged at 1500 rpm to remove the supernatant, washed with a FACS loading buffer and centrifuged again. The cells were resuspended with addition (200 μL/well) of a FITC labeled goat anti-mouse fluorescent antibody or PE labeled goat anti-human fluorescent antibody at 1:50 dilution and incubated at room temperature for 30 min in the dark. The supernatant was removed after centrifugation, and cells were washed with FACS loading buffer, centrifuged again and resuspended with the loading buffer for FACS analysis. The recombinant anti-hGIPR functional antibody specifically binds to GIPR-expressing CHO-DHFR-GIPR cells.

[5] = target: T3, monkey GIP receptor (maGIPR) (monkey, UniProt P48546 22-466 (human entry), limits assumed); assay: cell-based or functional assay
T3 chain: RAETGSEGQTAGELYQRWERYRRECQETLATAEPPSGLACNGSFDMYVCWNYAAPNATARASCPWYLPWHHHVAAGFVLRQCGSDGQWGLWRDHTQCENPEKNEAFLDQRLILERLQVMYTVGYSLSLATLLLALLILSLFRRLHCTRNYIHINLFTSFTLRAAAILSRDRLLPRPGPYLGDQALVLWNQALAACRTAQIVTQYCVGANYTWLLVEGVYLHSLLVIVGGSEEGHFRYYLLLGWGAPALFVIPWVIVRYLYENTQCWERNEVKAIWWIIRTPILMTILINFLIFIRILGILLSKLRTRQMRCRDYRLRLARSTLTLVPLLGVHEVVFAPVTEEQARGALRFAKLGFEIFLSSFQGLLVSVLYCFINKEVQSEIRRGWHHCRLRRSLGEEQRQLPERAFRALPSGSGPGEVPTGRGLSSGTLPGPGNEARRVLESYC

direct cAMP assay: inhibition of GIP-activated hGIPR signaling in CHO-DHFR cells stably expressing human GIPR (IC50) [1]: 14.9 nM
reporter gene assay (CRE-Luciferase) in CHO-DHFR- cells co-expressing hGLP1R: activation (EC50) [2]: 0.04 nM
B1: GIPR antibody/GLP-1 fusion protein GLP-1-Linker-L7H6 (protein, part only; not given: heavy and light constant regions, not shown: a dimerising Fc or GST)
light, part: HGEGTFTSDVSSYLEGQAAKEFIAWLVKGGGGGSGGGGSGGGGSDIVLTQSPASLAVSPGQRATITCRASQSVNTAVYSYIHWYQQKPGQPPKLLIKYASNLESGVPARFSGSGSGTDFTLTINPVEANDAANYYCQHSFDFPYTFGGGTKVEIKR
heavy, part: QVQLQESGPGLVKPSQTLSLTCTVSGYSITSDYAWNWIRQPPGKGVEWMGYISYRGIATYKPSLKSRITISRDTSKNQFSLKLSSVTAADTAVYYCVRGEYGPGNFDFWGQGTTVTVSS

direct cAMP assay: inhibition of GIP-activated hGIPR signaling in CHO-DHFR cells stably expressing human GIPR (IC50) [3]: 7.6 nM
B2: hGIPR antibody L7H6 (antibody, V domains shown)
VH: B1 heavy, part
VL: DIVLTQSPASLAVSPGQRATITCRASQSVNTAVYSYIHWYQQKPGQPPKLLIKYASNLESGVPARFSGSGSGTDFTLTINPVEANDAANYYCQHSFDFPYTFGGGTKVEIKR

binding result [4]: binds
B3: hGIPR antibody L10H8 (antibody, V domains shown)
VH: QVQLQQSGAEVKKPGSSVKVSCKASGGTFSSYAISWVRQAPGQGLEWMGGIIPTFGTANYAQKFQGRVTITADESTSTAYMELSSLRSEDTAVYYCAQGPIVGAPTDYWGKGTLVTVSS
VL: SYVLTQPPSASGTPGQRVAISCSGSNSNIGSNTVHWYQQLPGAAPKLLIYSNNQRPSGVPDRFSGSNSGTSASLAISRLQSEDEADYYCAAWDDSLNGVVFGGGTKVTVL
notes: Recombinantly expressed whole antibody; also called recombinant anti-hGIPR functional antibody

direct cAMP assay: inhibition of GIP-activated monkey GIPR signaling (IC50) [5]: 4.3 nM
direct cAMP assay: inhibition of GIP-activated hGIPR signaling in CHO-DHFR cells stably expressing human GIPR (IC50) [3]: 7.03 nM
reporter gene assay (CRE-Luciferase) in CHO-DHFR- cells co-expressing hGLP-1R: activation (EC50) [2]: 0.0174 nM
B4: GIPR antibody/GLP-1 fusion protein GLP-1-Linker-V1W5 (other)
light: HGEGTFTSDVSSYLEGQAAKEFIAWLVKGGGGGSGGGGSGGGGSDIVLTQSPASLAVSPGQRATITCRASQSVNTAVYSYIHWYQQKPGQPPKLLIKYASNLESGVPARFSGSGSGTDFTLTINPVEANDAANYYCQHSFDFPYTFGGGTKVEIKRTVAAPSVFIFPPSDEQLKSGTASVVCLLNNFYPREAKVQWKVDNALQSGNSQESVTEQDSKDSTYSLSSTLTLSKADYEKHKVYACEVTHQGLSSPVTKSFNRGEC
heavy: QVQLQESGPGLVKPSQTLSLTCTVSGYSITSDYAWNWIRQPPGKGVEWMGYISYRGIATYKPSLKSRITISRDTSKNQFSLKLSSVTAADTAVYYCVRGEYGPGNFDFWGQGTTVTVSSASTKGPSVFPLAPCSRSTSESTAALGCLVKDYFPEPVTVSWNSGALTSGVHTFPAVLQSSGLYSLSSVVTVPSSSLGTKTYTCNVDHKPSNTKVDKRVESKYGPPCPPCPAPEAAGGPSVFLFPPKPKDTLYITREPEVTCVVVDVSQEDPEVQFNWYVDGVEVHNAKTKPREEQFNSTYRVVSVLTVLHQDWLNGKEYKCKVSNKGLPSSIEKTISKAKGQPREPQVYTLPPSQEEMTKNQVSLTCLVKGFYPSDIAVEWESNGQPENNYKTTPPVLDSDGSFFLYSRLTVDKSRWQEGNVFSCSVMHEALHNHYTQKSLSLSLG
